Experimental data taken from the supplement of paper PMC9732359.
± gives the uncertainty stated by the source.

Assay: protein stability index of a GFP-peptide fusion (yeast GPS) (PSI 1-4); higher = more stable; sorted into four equal gates, so the index is relative within each strain
Procedure, shortened: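 The protein stability index of a peptide was calculated by multiplying its read frequency in each gate by that gate's number and adding the products. The peptides were tiled 17-residue stretches of yeast proteins, fused downstream of GFP on a Cherry-expressing plasmid and carried in yeast as a pooled library. Mid-log cultures in leucine-free medium were sorted into four equal gates by GFP/Cherry ratio, and each gate's plasmids were PCR-amplified and Illumina-sequenced.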

Row | Sequence | protein stability index (doa10∆) | protein stability index (pdr5∆) | protein stability index (san1∆) | protein stability index (ubr1∆)
1 | KPIQNGEIIDISAFTQF [ARP9] | 3.02 ± 0.098 | 2.76 ± 0.085 | 2.64 ± 0.091 | 2.98 ± 0.061
2 | QTKRWPTMYTRLCICSG [SIN4] | 1.4 ± 0.039 | 1.48 ± 0.038 | 1.51 ± 0.078 | 1.58 ± 0.03
3 | MDDEEWRSKRIEQLFPV [RPC53] | 3.24 ± 0.085 | 2.31 ± 0.055 | 2.89 ± 0.049 | 2.37 ± 0.041
4 | CVAAWGVCNHAFHLHCI [HRT1] | 1.69 ± 0.05 | 1.75 ± 0.065 | 1.52 ± 0.076 | 2.28 ± 0.045
5 | SSRTKFWSFLDSLIFKD [YJL039C/NUP192] | 2.78 ± 0.18 | 2.87 ± 0.17 | – | 2.72 ± 0.12
6 | ERKRKSVRGAIVGPDLA [RPS6A] | 3.38 ± 0.091 | 3.34 ± 0.075 | 3.33 ± 0.055 | 3.01 ± 0.13
7 | SQIIARNEEILRDIGEC [SMC2] | 2.79 ± 0.077 | 2.46 ± 0.091 | 2.85 ± 0.062 | 3.07 ± 0.084
8 | TLLREVVFTRLVQRCWQ [CSN12] | 1.4 ± 0.061 | 1.24 ± 0.048 | 1.39 ± 0.12 | 1.54 ± 0.055
9 | KGRAYKRLLYTRRFVNV [RPS30A] | 2.38 ± 0.058 | 2.12 ± 0.064 | 2.81 ± 0.069 | 2.76 ± 0.039
10 | QNIKAPSVKRQKMAELE [PRP8] | 3.29 ± 0.088 | 3.25 ± 0.07 | 3.3 ± 0.074 | 3.29 ± 0.077
11 | RKYSFNYSSLPSPYKTT [YAR002W/NUP60] | 2.56 ± 0.054 | 2.8 ± 0.05 | 2.71 ± 0.058 | 2.71 ± 0.045
12 | QRGKWNLKYLDNSNVMT [RGR1] | 2.37 ± 0.093 | 2.49 ± 0.084 | 2.58 ± 0.077 | 1.95 ± 0.073
13 | MSDFQKEKVEEQEQQQQ [RPS20] | 2.87 ± 0.15 | 3.17 ± 0.15 | 3.16 ± 0.08 | 3.51 ± 0.085
14 | SIQPIESNIKMTLEDNN [SSN2] | 3.12 ± 0.077 | 3.08 ± 0.075 | 2.81 ± 0.053 | 2.97 ± 0.043
15 | GLMKSYKIPKVMKDIYK [ESC2] | 3.15 ± 0.27 | 3.38 ± 0.12 | 2.42 ± 0.26 | 2.92 ± 0.11
16 | DATANATANATANATAN [DSN1] | 3.25 ± 0.086 | 3.04 ± 0.071 | 3.37 ± 0.053 | 3.12 ± 0.043
17 | MAKRVADAQIQRETYDS [YLR335W/NUP2] | 2.21 ± 0.22 | 2.7 ± 0.14 | 2.08 ± 0.12 | 2.21 ± 0.1
18 | PSIPLVIIRRLKTRDWI [POP1] | 2.72 ± 0.1 | 1.69 ± 0.073 | 2.86 ± 0.12 | 2.53 ± 0.081
19 | GLNSDAEEVRNFALTTL [ECM29] | 2.84 ± 0.14 | 3.13 ± 0.29 | 1.38 ± 0.098 | 1.62 ± 0.11

Row | Sequence | protein stability index (doa10∆) | protein stability index (pdr5∆) | protein stability index (san1∆) | protein stability index (ubr1∆)
20 | LSEPLIKIGIRVMKSLS [YCG1] | 1.59 ± 0.066 | 1.98 ± 0.052 | 1.74 ± 0.066 | 1.73 ± 0.06
21 | EVSCKLLETITYVLNTW [YML103C/NUP188] | 2.15 ± 0.068 | 2.35 ± 0.073 | 2.07 ± 0.11 | 2.11 ± 0.082
22 | ESNRQSVIVDSKVTVPP [ESC2] | 2.47 ± 0.11 | 2.87 ± 0.082 | 2.81 ± 0.079 | 2.81 ± 0.048
23 | RIENPEKYAAAAPAATS [RPP0] | 2.95 ± 0.085 | 3.22 ± 0.11 | 2.71 ± 0.094 | 3.16 ± 0.057
24 | EERSNNLLTPQPTNFTT [MCD1] | 3.02 ± 0.061 | 3.11 ± 0.063 | 2.91 ± 0.061 | 3.12 ± 0.05
25 | LAQLTSKLIPEVINKEI [RPS1A] | 2.82 ± 0.1 | 3.28 ± 0.1 | 2.92 ± 0.073 | 2.71 ± 0.07
26 | NLRLKILTIIEEYKKSL [GRR1] | 1.65 ± 0.068 | 1.6 ± 0.055 | 1.86 ± 0.083 | 1.61 ± 0.07
27 | VDFDGLDIKRVGSENVE [SNF12] | 3.3 ± 0.19 | 3.32 ± 0.14 | 3.49 ± 0.24 | 3.35 ± 0.1
28 | RLKYALNGREVKAILMQ [RPS4A] | 1.74 ± 0.073 | 1.39 ± 0.062 | 1.62 ± 0.18 | 1.24 ± 0.05
29 | QRRGPLVVYAEDNGIVK [RPL4A] | 3.43 ± 0.11 | 3.14 ± 0.095 | 2.46 ± 0.093 | 2.68 ± 0.11
30 | LDEMELHPYNSRGLFEK [YDL116W/NUP84] | 3.23 ± 0.094 | 3.04 ± 0.1 | 2.86 ± 0.076 | 3.22 ± 0.063
31 | EIFQLFTNPSVDIQIIN [SWI1] | 2.69 ± 0.081 | 2.88 ± 0.09 | 2.55 ± 0.078 | 2.54 ± 0.064
32 | QWLNNALKRSYGIFGEG [POP8] | 2.8 ± 0.08 | 3.02 ± 0.059 | 3.08 ± 0.07 | 3.15 ± 0.071
33 | TNNKKLLEKANNQQRLL [SMC3] | 2.01 ± 0.11 | 1.94 ± 0.091 | 2.58 ± 0.18 | 1.49 ± 0.063
34 | LGPGIYCDPNTQEIRPV [RRP40] | 2.62 ± 0.057 | 2.78 ± 0.051 | 2.53 ± 0.057 | 2.59 ± 0.058
35 | LQGEVENIAQMKPKAEK [SMC4] | 3.02 ± 0.15 | 3.4 ± 0.12 | 3.19 ± 0.075 | 3.11 ± 0.075
36 | ADQEQAKLIRSAIEHTT [RPO21] | 3.19 ± 0.12 | 2.96 ± 0.15 | 2.82 ± 0.1 | 2.84 ± 0.1
37 | PNFLGNCNIKDFKPPYI [SWP82] | 2.62 ± 0.048 | 2.64 ± 0.041 | 2.61 ± 0.054 | 2.65 ± 0.031
38 | FAAAPNDTSSGTNAMLP [SNF5] | 3.13 ± 0.078 | 3.26 ± 0.13 | 3.06 ± 0.096 | 2.89 ± 0.1

Row | Sequence | protein stability index (doa10∆) | protein stability index (pdr5∆) | protein stability index (san1∆) | protein stability index (ubr1∆)
39 | KSKERSSQFVRLASEPG [YMR129W/POM152] | 2.65 ± 0.14 | 2.62 ± 0.13 | 3.16 ± 0.1 | 2.8 ± 0.074
40 | KSDEAKWKPVLSHIVYF [RPN5] | 2.29 ± 0.067 | 2.21 ± 0.062 | 2.23 ± 0.058 | 2.03 ± 0.047
41 | FKTYRNETIIDNFSPHQ [SMC3] | 1.97 ± 0.17 | 1.42 ± 0.18 | 2.76 ± 0.21 | –
42 | QGGVLPNIHQNLLPKKS [HTA1] | 2.67 ± 0.082 | 2.75 ± 0.074 | 2.9 ± 0.076 | 2.71 ± 0.057
43 | YWVPDWDGVIPTPAIIK [RPO21] | 2.34 ± 0.14 | 2.7 ± 0.096 | 2.8 ± 0.081 | 2.8 ± 0.079
44 | MSIGTGSFKVVKGTNIS [RPO31] | – | 2.19 ± 0.15 | – | –
45 | QGSVTVGLRSNTHAVLV [PRE5] | 1.24 ± 0.033 | 1.43 ± 0.039 | 1.75 ± 0.07 | 1.29 ± 0.037
46 | EISTSKKNNLEFGTYGK [RPN14] | 2.6 ± 0.08 | 2.13 ± 0.061 | 2.17 ± 0.082 | 2.04 ± 0.059
47 | ERGGKFHESGSQYSTMV [RGR1] | 3.36 ± 0.12 | 3.45 ± 0.12 | 3.44 ± 0.25 | 3.3 ± 0.14
48 | AFNFSFNTSRNVEPTEN [YAR002W/NUP60] | 3.3 ± 0.052 | 3.3 ± 0.079 | 3.41 ± 0.064 | 3.04 ± 0.051
49 | NHVMYTEVSRKSMKYVK [ECM29] | 2.37 ± 0.055 | 2.61 ± 0.06 | 2.27 ± 0.078 | 2.23 ± 0.039
50 | AAEKSFKPPKNKYKVVR [SEC65] | 3 ± 0.28 | 3.08 ± 0.19 | 3.05 ± 0.12 | 3.15 ± 0.12
51 | YGGSRCANCVKERIVRA [RPL34B] | 3.36 ± 0.21 | 3.38 ± 0.089 | 2.87 ± 0.076 | 3.15 ± 0.14
52 | MGGPKQKGITSYAVSPY [QCR8] | 2.46 ± 0.17 | 2.45 ± 0.2 | 2.25 ± 0.12 | 1.63 ± 0.21
53 | IVPLTEGDIQVLKSYGA [RPT1] | 3.14 ± 0.09 | 3.14 ± 0.11 | 2.77 ± 0.062 | 2.99 ± 0.052
54 | VSQMVAVVGQQIISGNR [RPO31] | 3.2 ± 0.14 | 3.14 ± 0.15 | 3 ± 0.094 | 2.68 ± 0.13
55 | AFHLHCINKWIKTRDAC [HRT1] | 1.86 ± 0.089 | 2 ± 0.076 | 1.66 ± 0.14 | 2.19 ± 0.065
56 | RILKLGTQLATLKNRGL [YGR119C/NUP57] | 2.29 ± 0.078 | 2.57 ± 0.068 | 2.65 ± 0.081 | 2.84 ± 0.046
